Data on nine molecules can be found in US20240324599A1, “PESTICIDAL ENZYMES FOR USE ON NEMATODES, INSECTS, AND MOLLUSKS” (priority 2023, published 2024).

Common to all, as to assay type: in vivo
Experiment [1] relates to soybean cyst nematode (SCN, Heterodera glycines). Kind of experiment: Controlled environment soybean seed treatment trial: SCN cysts on roots. The settings on record: for % Comparison to Control: base control = 100%.
Experiment [2] deals with Fall armyworm (Spodoptera frugiperda). Kind of experiment: Diet-surface overlay (DSO) bioassay. As to conditions: number of individuals. The procedure:
(§1) Diet-surface overlay bioassays are conducted with artificial diet mixes without antibiotics in 1.5 cm^2 cell bioassay trays(s). Artificial diets are commercially available from Southland Products Inc. Diets were prepared by dispersing 0.5 mL of molten diet to each 1.5 cm^2 cell. After solidification, 0.1 mL enzyme treatments were dispersed on top of diet in each cell and the tray was gently rocked in an orbital shaker to spread the liquid uniformly over the diet surface. Trays were placed under clean airflow until the surface of each cell was uniformly dried. One or two 16-cell sections were used per treatment (the number in larvae treated was 16 or 32).
(§2) One healthy first instar larva was placed into each treatment cell, each 16-cell section was covered with a re-sealable lid and incubated at 27° C. and light-dark period of 16:8 hrs. After 7 days, and according to the species, the number of individuals in the following developmental categories was recorded.
(§3) Negative/untreated controls were treated with filtered water and positive controls were treated with lethal doses of Bacillus thuringiensis subsp. Kurstaki (Btk) spores at 1000 ppm.

The subject of experiment [3] is Btk resistant Diamondback moth. Kind of experiment: Diet-surface overlay (DSO) bioassay. As to conditions: Table 47, Btk resistant. The procedure:
as §1, §2
Diamondback moth (Plutella xylostella): Dead Larva (lack of movement), Larva Stage I (≤50% relative size), Larva Stage II (100% relative size, full size), Early Pupa (light green color), Late Pupa (light-dark brown color), and Adult.
as §3
However, both neutral proteases reduced the number of individuals reaching adult stage.

Where [4] appears, read: Table 50, esterases, n=32, dose per treatment in U/mL Diet.

B1: Bacillus thuringiensis Lipase 1 (protein, listed as Bacillus thuringiensis)
chain: YGFVSGVNDVLNPKASNLIKKTDVVAKEKKKTGTLQIVSLGDSLTRGVGDKEGIGYVGRMKEDLQKDYKQKIALTNLAVSGAKMPDLLKQIESNGAQYSIKQADVIVLTIGGNDLFPGWESLGKIDLETYRPDTETFQNEAKKIIEEIRKLNTDSPIFWLGLYNPFEDVEDLKGSSNIVVDWNASLEKLALNDKNVYITPTFDLFQNRGKDLLYSDHFHPNEVGYTYMAERLVQNVVSKLKLEQGGVK
On to B1, for which the “% Comparison to Control” value in experiment [1] (Table 19, change in brackets) is given as 75% (−25%). In experiment [1] (Table 19, free enzyme seed treatment, soybean 2830E3, base control 442.5), the “Average cysts per g of root tissue” value was 332.0 cysts per g of root tissue.

B2: H6-pytH (SEQ ID NO: 95) (protein, listed as Sphingobium wenxiniae)
chain: MTVTDIILIHGALNRGACYDAVVPLLEARGYRVHAPDLTGHTPGDGGHLSVVDMEHYTRPVADILARAEGQSILLGHSLGGASISWLAQHHPDKVAGLIYLTAVLTAPGITPETFVLPGEPNRGTPHALDLIQPVDEGRGLQADFSRLERLREVFMGDYPGEGMPPAEQFIQTQSTVPFGTPNPMEGRALEIPRLYIEALDDVVIPIAVQRQMQKEFPGPVAVVSLPASHAPYYSMPERLAEAIADFADAPAEYRQTATKAGPDRPAGADGGRADRADLP
modifications: Esterase (pytH)
In the case of B2, in experiment [2] (Table 50, esterases, n=32), the “Larva Stage I” value is 0, the “Larva Stage II” value was found to be 0, the “Larva Stage III” value is on record as 13 and the “Larva Stage IV” value came out at 19. Besides, the “Dead Larva” value in experiment [2] (setting [4]) is recorded as 0.

B3: Trichoderma lixii trypsin-like protease (protein, listed as Trichoderma lixii)
chain: AAITPRGSDIVGGTTAALGEFPYIVSLSTGGSHFCGGVLIDSRTVVTAGHCTIDQRASSVKVRAGTLTWASGGTQVGVSSLTLHPSYTVDSQGVPDNDVGVWHLATAIPTSSTIGYATLPASGSDPAAGTTLTVAGWGTTSENSNSLPSTLRKVSVPVVARATCDSDYDGEISNNMFCAAVAAGGKDSCSGDSGGPIIDPSGTLVGVVSWGQGCAERGFPGVYTRLGNYVSFINSNRG
modifications: H182 trypsin-like protease
Consider B3, for which the “% Comparison to Control” value in experiment [1] (Table 11) is given as 26%. Also, in experiment [1] (Table 11, free enzyme seed treatment 2 fl oz/unit, soybean P18A98X, ILEVO 0.15 mg AI/seed, 3 weeks after inoculation, base control 71.4), the “Average cysts per g of root tissue” value is 18.6 cysts per g of root tissue.

B4: Bacillus thuringiensis Lipase 2 (protein, listed as Bacillus thuringiensis)
chain: EVVKELGKGFPDTEVFTPGEWFLGQKPANYDENKPPILFVQGRNGNADSWYGKTVYHDINDMYDYALKAGYQTVFIQLYDAAGKGSASQWDNGKLLAQKLEEIYNYFGKKVNIVAHSKGGIDTQAALVEYGANRFVGNVITLATPHHGSNLADLSYSWWAGWLASILGQKDDGTYSLQIGEMAKFRSIIDNNPAAKLNRYYTATGTSWGPTFSALSMGGLYLSSYGSNDGLVNEWSAKLSYGTHLFTDSRFDHDNIRKGSAVFARIEPYLRTTNVGLPALVASSTSSNEDLEQLNTTSNQNILGGELPQNQWIEQSISVDKKAEGIVSVLTASSDVEVQMVSPKGKIYANKDSAITTGEGESFFNRATIRTFKFDKLEVGEWKIKMMAKQSKDAYLVVSDYKDDAPFVLRMPTKVKINKPEYKLKKSPVAPEMKGDLSITVRVVNKEGKLVSEFNELQNVNTNTFTGALKDIKQPGVYNVTMDIKGMNKEGKPYNRTIVKSVYVEK
In the case of B4, in experiment [1] (Table 20, change in brackets), the “% Comparison to Control” value is on record as 57% (−43%). In experiment [1] (Table 20, free enzyme seed treatment, soybean 2830E3, base control 459.7), the “Average cysts per g of root tissue” value is 264.3 cysts per g of root tissue.

B5: Chitinase C (protein, listed as Bacillus thuringiensis)
chain: DSPKQSQKIVGYFPSWGVYGRNYQVADIDASKLTHLNYAFADICWKGKHGNPSTHPDNPNKQTWNCKESGVPLQNKEVPNGTLVLGEPWADVTKSYPGSGTTWEDCDKYARCGNFGELKRLKAKYPHLKTIISVGGWTWSNRFSDMAADEKTRKVFAESTVAFLRAYGFDGVDLDWEYPGVETIPGGSYRPEDKQNFTLLLQDVRNALNKAGAEDGKQYLLTIASGASQRYADHTELKKISQILDWINIMTYDFHGGWEATSNHNAALYKDPNDPAANTNFYVDGAIDVYTNEGVPVDKLVLGVPFYGRGWKSCGKENNGQYQPCKPGSDGKLASKGTWDDYSTGDTGVYDYGDLTANYVNKNGFVRYWNDTAKVPYLYNATTGTFISYDDNESMKYKTDYIKTKGLSGAMFWELSGDCRTSPKYSCSGPKLLDTLVKELLGGPINQKDTEPPTNVKNIIVTNKTSSSVQLSWTASTDNVGVTEYEITAGEEKWSATTNSITIKNLKPNTEYTFSVIAKDASGNKSHPTALTVKTDEANTTPPDGNGTATFSVTSNWGSGYNFSIIIKNNGTIPIKNWKLEFDYSGNLTQVWDSKISSKTNNHYVITNAGWNGEIPPGGSITIGGAGTGNPAELLNAVISEN
With B5, in experiment [1] (Table 18, change in brackets), the “% Comparison to Control” value is 78% (−22%). The “Average cysts per g of root tissue” value in experiment [1] (Table 18, free enzyme seed treatment, base control 58.3) is 45.7 cysts per g of root tissue.

B6: H6-pnbA (SEQ ID NO: 94) (protein, listed as Bacillus subtilis)
chain: MTHQIVTTQYGKVKGTTENGVHKWKGIPYAKPPVGQWRFKAPEPPEVWEDVLDATAYGSICPQPSDLLSLSYTELPRQSEDCLYVNVFAPDTPSKNLPVMVWIHGGAFYLGAGSEPLYDGSKLAAQGEVIVVTLNYRLGPFGFLHLSSFNEAYSDNLGLLDQAAALKWVRENISAFGGDPDNVTVFGESAGGMSIAALLAMPAAKGLFQKAIMESGASRTMTKEQAASTSAAFLQVLGINEGQLDKLHTVSAEDLLKAADQLRIAEKENIFQLFFQPALDPKTLPEEPEKAIAEGAASGIPLLIGTTRDEGYLFFTPDSDVHSQETLDAALEYLLGKPLAEKVADLYPRSLESQIHMMTDLLFWRPAVAYASAQSHYAPVWMYRFDWHPKKPPYNKAFHALELPFVFGNLDGLERMAKAEITDEVKQLSHTIQSAWITFAKTGNPSTEAVNWPAYHEETRETLILDSEITIENDPESEKRQKLFPSKGE
modifications: Esterase (pnbA)
Turning to B6, in experiment [2] (Table 50, esterases, n=32), the “Larva Stage I” value is recorded as 0, the “Larva Stage II” value turned out to be 0, the “Larva Stage III” value came out at 15 and the “Larva Stage IV” value came out at 17. Also, the “Dead Larva” value in experiment [2] (setting [4]) is 0.

B7: Pseudomonas sp. esterase free enzyme concentrate (SEQ ID NO: 248): free enzyme concentrated in an Amicon Ultra 4K filter unit (protein, listed as Pseudomonas sp.)
chain: MTEPLILQPVKPADACVIWLHGLGADRYDFLPVAEALQEILLSTRFVLPQAPTRPVTINGGYAMPSWYDIKAMSPARAIDRDELEASADRIIELIEEQRSSGIDASRIFLAGFSQGGAVVYHTAFLKWQGPLGGVLALSTYAPTFSDELELSASQQRIPVLSLHGQFDNVVQNSMGRTAYEYLKAHGVTVTWQEYPMEHEVLPEEIRDIGTWLSERLR
As for B7, the “% Comparison to Control” value in experiment [1] (Table 16, change in brackets) was 75% (−25%). Besides, the “Average cysts per g of root tissue” value in experiment [1] (Table 16, seed treatment, soybean 2830E3, concentrate = 4× volumetric concentration, base control 244.3) is 182.1 cysts per g of root tissue.

B8: Bacillus pumulis Collagenase B (ColB) (protein, listed as Bacillus pumulis, listed as Bacillus pumilus)
chain: IVNGKRVITKKPELLAPAGNLEKLKIAVHYGADAVFIGGQEYGLRSNADNFTIEEIAEGVEFAKKYGAKIYVTTNIFAHNENMDGLEDYLKALGDANVAGIIVADPLIIETCRRVAPNVEVHLSTQQSLSNWKAVQFWKEEGLDRVVLARETSALEIREMKEKVDIEIESFIHGAMCIAYSGRCVLSNHMTARDSNRGGCCQSCRWDYDLYQTDGANAVALYGEEDAPFAMSPKDLKLIESIPKMIEMGIDSLKIEGRMKSIHYVATVVSVYRKVIDAYCADPENFVIQKEWLEELDKCANRDTATAFFEGTPGYEEQMFGEHAKKTTYDFVGLVLNYDEDTQMVTLQQRNFFKKGDEVEFFGPEIENFTHTIETIWDEDGNELDAARHPLQIVKFKLDKKIYPSNMMRKGK
modifications: Collagenase B (ColB)
In the case of B8, the “% Comparison to Control” value in experiment [1] (Table 22, change in brackets) was 15% (−85%). For the same molecule, the “Average cysts per g of root tissue” value in experiment [1] (Table 22, free enzyme seed treatment, soybean 2830E3, base control 470.7) is listed as 70.9 cysts per g of root tissue.

B9: Akanthomyces lecanii Acidic Chitinase 1 (Chit1) (protein, listed as Akanthomyces lecanii)
chain: MAKCTSPDRKCPAPLIDAPINSFMTDGWADTDIHWEGDSWNDSGTNIYGCLKQLNILKKHNRNFKVLLSIGGWTYSSNFPAPASTPEGRDTFAKSCVELVKNLGFDGIDIDWEYPKTAEEAGHFVELLAEVRKQLDEYSARAANNYHFELSVACPAGPDNFQKLNISGMDAYLDFWNLMAYDYAGSWDKNSGHQANLYPCKDAPGCTPFSTVAAVDYYTSNGVSPDKLVLGMPLYGRAFENCDGIGQPFQGVGQGTWEQGVYDYKKLPLEGAEEHKDDDSCATYCHNAESRTLVTYDTPELAKTKADFIKERGLGGGMWWESSADKAGDDSLIQVVVSELGGPEALKQQQNCISYPETKYDNLRDGLPDN
modifications: Acidic Chitinase 1 (Chit1-H195)
As for B9, the “Dead Larva” value in experiment [3] (individuals of n = 32 after 7 days, mU/mL diet: SEQ 182 3.7, SEQ 185 0.6, water 1) was found to be 2. For the same molecule, in experiment [3] (n = 32, doses as E97, water 0), the “Early Pupa” value was 8, the “Larva Stage I” value was 2 and the “Larva Stage II” value was found to be 2. The Adult in experiment [3] (n = 32, doses as E97, water 7) stood at 1. For the same molecule, the “Late Pupa” value in experiment [3] (n = 32, doses as E97, water 24) worked out at 17. Also, in experiment [2] (Table 48, chitinases, n = 32), the “Larva Stage I” value is reported as 4, the “Larva Stage II” value worked out at 5, the “Larva Stage III” value was 8 and the “Larva Stage IV” value is 8. The “Dead Larva” value in experiment [2] (Table 48, chitinases, n = 32, dose per treatment in mU/mL Diet) is listed as 7.
